Measurements from patent US20110318757A1 (MAB FACTORY, published 2011).

How the values were obtained:
[1] = target: T1, MUC1 peptide (15 aa+cystein, APDTRPAPGSTAPPAC) (human); test: SPR, scFv 2-200 nM over immobilized MUC1 peptide, Chip 1 (47 RU)
T1 construct: If the listing entry has only 15 residues, a C-terminal Cys must be added; Immobilized on the SPR chip; also called synthetic MUC1 peptide
T1 peptide: APDTRPAPGSTAPPAC

32-mer MUC1 peptide [2] = target: T2, 32-mer MUC1 peptide (human); test: titration ELISA, MUC1 peptide (32mer Cys) 50 ng/well, IgG diluted 1:3.16 from 100 µg/mL, detection goat anti-human IgG (Fc) HRP, TMB; mean of three plates, BSA value subtracted; A450-A620
T2 construct: also called MUC1 peptide antigen (32mer cys); MUC1 peptide (32 mer cys)
T2 peptide: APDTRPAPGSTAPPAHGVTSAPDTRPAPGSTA
Description: 3× Nunc Maxisorp plates coated with 50 ng/well MUC1 peptide antigen (32mer cys, sequence: […]) [0227] Control plate was coated with 100 ng/well BSA [0228] Blocking solution: 2% skim milk powder in PBS-T (0.1% Tween), 1 h, RT [0229] IgG samples were diluted to a final concentration of 100 μg/ml with blocking solution [0230] samples were sequentially diluted 1:3.16 [0231] detection: goat anti-human IgG (Fc spec) HRP conjugate (Sigma, 1:39000), 1 h, RT [0232] Development: TMB substrate, reaction stopped with sulfuric acid after 10 minutes. [0233] A450-A620 measured in a Tecan Sunrise Reader [0234] […] Mean value and standard deviation of three plates (MUC1) calculated [0236] BSA value (negative control) subtracted from mean value [0237] Plotting: [0238]

32-mer MUC1 peptide [3] = target: T2, 32-mer MUC1 peptide; test: ELISA, IgG on coated 32-mer MUC1 peptide
Description: (§1) This analysis was done using the ELISA technique wherein the 32-mer MUC1 peptide is immobilized in the wells of a microtitre plate, and wherein the anti-MUC1 antibodies are added later in different concentrations.

32-mer MUC1 peptide [4] = target: T2, 32-mer MUC1 peptide; test: ELISA, 32-mer MUC1 peptide immobilized in microtitre wells, IgG about 0.03 to 8000 ng/well, A450-A620 (preliminary results according to the legend)
Description: as §1

[5] = target: T1, MUC1 peptide (15 aa+cystein, …); test: SPR, scFv over immobilized MUC1 peptide, Chip 2 (14 RU)
[6] = target: T1, MUC1 peptide (15 aa+cystein, …); test: SPR, scFv over immobilized MUC1 peptide, Chip 2 (14 RU); Chip 2 (14 RU MUC1 peptide)

B1: HT220-M-D1 scFv (scFv)
scFv: QMLLVQSGAEAKKPGASVKVSCKASGYTFTGHYMHWVRQAPGQGLEWMGWIDPVTGGTKYAQNFQGWVTMTRDTSIRTAYMELSRLRPDDTAMYYCAREVTGDRGQFDKWGQGTLVTVASASTKGPSVKLEEGEFSEARVQSVLTQPPSVSVVPGKTARIICGGNNIGSKSVHWYQQKPGQAPVLVIYNNSDRPSGIPERFSGSNSGNMATLTISRVEAGDESDYYCQVWDSSSDWVFGGGTRLTILGQSKAAPSVTLFPPS
notes: scFv as VH-truncated CH1-linker-VL-truncated CL, made in the E. coli periplasm and purified by its His-tag; not shown: C-terminal His-tag used for purification and detection
With B1 the Ka [1] was 2.8e+08 M⁻¹, the Kd [1] was 3.7 nM and the koff [1] was 0.00011 s⁻¹. For the same binder, the kon [1] was 29000 M⁻¹ s⁻¹.

B2: R764-B7 (HT186-B7 IgG) (antibody, V domains shown)
VH: QMQLVQSGAEVKKPGASVKVSCKASGYTFTGHYMHWVRQAPGQGLEWMGWIDPVTGGTKYAQNFQGWVTMTRDTSIRTAYMELSRLRSDDTAMYYCAREVTGDRGQFDKWGQGTLVTVAS
VL: QSVLTQPPSVSVAPGKTARITCGGNNIGSKSVHWYQQKPGQAPALVIYYGSYRPSGIPERFSGSNYGNTATLTIRRVEAGDEADYYCQVWDSSSDWVFGGGTKLTVLG
notes: Human IgG1, lambda, produced in YB2/0 cells
B2 was tested, and the “EC50 (read off the curve)” value (32-mer MUC1 peptide [2]) was ~0.1 µg/mL, the “fold stronger binding than R764-G2 and R764-hHMFG1” value (32-mer MUC1 peptide [3]) was 10 times and the “EC50 (read off the curve)” value (32-mer MUC1 peptide [4]) was ~10 ng/well.

B3: R764-D11 (HT186-D11 IgG) (antibody, V domains shown)
VH: QMQLVQSEAELKKPGASVKVSCKASGYSFTGHYMHWVRQAPGQGLEWMGWIDPVTGGTKYAQNFQGWVTMTRDTSIRTAYLELSRLRSDDTAMYYCAREVTGDRGQFDKWGQGTLVTVAS
VL: QSVLTQPPSVSVAPGKTARITCGGNNIGSKSVHWYQQKPGQAPALVIYYGSNRPSGIPERFSGSNSGNTATLTISRVEAGDEADYYCQVWDSSSDWVFGGGTKLTVLG
notes: Human IgG1, lambda, produced in YB2/0 cells; also called R764 HT186-D11
B3 was tested, and the “EC50 (read off the curve)” value (32-mer MUC1 peptide [2]) was ~0.1 µg/mL, the “fold stronger binding than R764-G2 and R764-hHMFG1” value (32-mer MUC1 peptide [3]) was 10 times and the “EC50 (read off the curve)” value (32-mer MUC1 peptide [4]) was ~10 ng/well.

B4: HT186-B7 scFv (scFv)
scFv: QMQLVQSGAEVKKPGASVKVSCKASGYTFTGHYMHWVRQAPGQGLEWMGWIDPVTGGTKYAQNFQGWVTMTRDTSIRTAYMELSRLRSDDTAMYYCAREVTGDRGQFDKWGQGTLVTVASASTKGPSVKLEEGEFSEARVQSVLTQPPSVSVAPGKTARITCGGNNIGSKSVHWYQQKPGQAPALVIYYGSYRPSGIPERFSGSNYGNTATLTIRRVEAGDEADYYCQVWDSSSDWVFGGGTKLTVLGQPKAAPSVTLFPPS
notes: as for B1
B4 showed a Ka [1] of 7.5e+08 M⁻¹, a Kd [1] of 1.3 nM and a koff [1] of 4.6e-05 s⁻¹. For the same binder, the kon [1] was 35000 M⁻¹ s⁻¹, the Ka [5] was 6.3e+08 M⁻¹ and the Kd [5] was 1.6 nM. For the same binder, the koff [5] was 0.00014 s⁻¹ and the kon [5] was 90000 M⁻¹ s⁻¹.

B5: HT186-D11 scFv (scFv)
scFv: QMQLVQSEAELKKPGASVKVSCKASGYSFTGHYMHWVRQAPGQGLEWMGWIDPVTGGTKYAQNFQGWVTMTRDTSIRTAYLELSRLRSDDTAMYYCAREVTGDRGQFDKWGQGTLVTVASSSTKGPSVKLEEGEFSEARVQSVLTQPPSVSVAPGKTARITCGGNNIGSKSVHWYQQKPGQAPALVIYYGSNRPSGIPERFSGSNSGNTATLTISRVEAGDEADYYCQVWDSSSDWVFGGGTKLTVLGQPKAAPSVTLFPSS
notes: as for B1
Work on B5 yielded a Ka [1] of 1.8e+09 M⁻¹, a Kd [1] of 0.57 nM and a koff [1] of 2.1e-05 s⁻¹. For the same binder, the kon [1] was 38000 M⁻¹ s⁻¹, the Kd [6] was 0.65 nM and the Ka [5] was 1.5e+09 M⁻¹.

B6: HT220-M-G8 scFv (scFv)
scFv: QMQLVQSGAEVMKPGASVKVSCKASGYSFTGHYMHWVRHAPGQGLEWMGWIDPVTGSTKYAQNFQGWVTMTRDTSISTAYMELSRLRSDDTAMYYCAREVTGDRGQFDKWGQGTLVTVASASTKGPSVKLEEGEFSEARVQSVLTQPPSVSVAPGKTARITCGGNNIGSKSVHWYQQKPGQAPVLVIYYGSDRPSGIPERFSGSNTGNMATLTISRVEAGDEADYYCQVWDSSSDWVFGGGTKLTVLGQPKAAPSVTLFPPS
notes: as for B1
Binder B6 has a Ka [1] of 2.3e+08 M⁻¹, a Kd [1] of 4.4 nM and a koff [1] of 0.00022 s⁻¹. It also gave a kon [1] of 50000 M⁻¹ s⁻¹.

B7: HT200-3A-C1 scFv (scFv)
scFv: QMQLVQSGAEVKKPGASVKVSCKASGYTFTGHYMHWVRQAPGQGLEWMGWIDPVTGGTKYAQNFQGWVTMTRDTSIRTAYMELSRLRSDDTAMYYCAREVTGDRGQFDKWGQGTLVTVASASTKGPSAKLEEGEFSEARVQSVLTQPPSVSMAPGETARITCGGNNIGSKSVHWYQQKPGQAPVLVIYNDSDRPSGIPERFSGSNSGKTATLTISRVEAGDEADYYCQVWDSSIDWVFGGGTKLTVLGQPKAAPSVTLFPPS
notes: as for B1
B7 showed a Ka [1] of 4.8e+08 M⁻¹, a Kd [1] of 2.1 nM and a koff [1] of 0.0001 s⁻¹. It also gave a kon [1] of 49000 M⁻¹ s⁻¹.

B8: HT186-G2 scFv (scFv)
scFv: RMQLVQSGAEVKKPGASVKLSCKASGYTFAGHYMHWVRQAPGRGLEWMGWIDPVTGGTKYAQNFQGWVTMTRDTSIRTAYMELSRLRSDDTAMYYCAREVTGDRGQFDKWGQGTLVTVASASTKGPSVKLEEGKFLEAHVQSVLTQPPSVSVAPGKTARITCGGNNIGSKSVHWYQQKPGQAPVLVIYYGSDRSSGIPERFSGSNSGNTATLTISRVEAGDEADYYCQVWDSSSDWVFGGGTKLTVLGQPKAAPSVTLFPPS
notes: as for B1
B8 showed a Ka [1] of 1e+09 M⁻¹, a Kd [1] of 1 nM and a koff [1] of 7.2e-05 s⁻¹. It also gave a kon [1] of 72000 M⁻¹ s⁻¹, a Ka [5] of 6.6e+08 M⁻¹ and a Kd [5] of 1.5 nM. It also gave a koff [5] of 0.00011 s⁻¹ and a kon [5] of 73000 M⁻¹ s⁻¹.
